72 sequences from the supplement of paper PMC10567573 can be followed below.

The data set can be described thus: protein stability index of a GFP-peptide fusion (GPS, HEK-293T) (PSI 1-6); higher = more stable.
Where [1] appears, read: treatment: DMSO, c terminus: a fixed tail appended.
Setting [2] is: treatment: MLN4924 1 uM, 8 h, c terminus: a fixed tail appended.

± gives the standard deviation.
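Further: 24-mer peptide tiles fused after GFP, lentivirally expressed, FACS-sorted into six equal bins by GFP/DsRed ratio, decoded by Illumina sequencing, PSI is the read-weighted mean bin number.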

Take PVSLSASQSWHTESLPVSLGPESW [BCL2L13]: the protein stability index is, setting by setting: under setting [1], 3.37 ± 0.26; under setting [2], 3.21 ± 0.11.

On to PVTKPLFPSAGQAQAAVQGPVGTD [ZNF207], for which the protein stability index is 5.15 ± 0.17 under setting [1] and 5.05 ± 0.11 under setting [2].

As to PYSFIEFDTFIQKTKKLYIDSRAR [SEC22B], the protein stability index amounted to 2.38 ± 0.12 under setting [1] and 2.41 ± 0.25 under setting [2].

Turning to QALRRLRPRTRKVKSVSPQGNSVD [NCF4], the protein stability index is 4.32 ± 0.46 under setting [1] and 4.63 ± 0.26 under setting [2].

QAPPQDSSNKKEKKVLNHGYDDDN [DYRK1B] yielded a protein stability index under setting [1] of 5.61 ± 0.16 and a protein stability index under setting [2] of 5.51 ± 0.11.

QAREKELLELQSQQACTHTKETEQ [CCDC89]: the protein stability index by setting is: under setting [1], 5.55 ± 0.21; under setting [2], 5.61 ± 0.17.

As to QASSERLGLDNRLFGHPGLDMELG [ADAMTSL2], the protein stability index stood at 3.87 ± 0.12 under setting [1] and 4.02 ± 0.5 under setting [2].

Take QATCNVHKSAFNDWFSGHLNFQIE [FADS1]: the protein stability index was found to be 2.44 ± 0.28 under setting [1] and 2.48 ± 0.2 under setting [2].

QCRHTLEQHNWNIEAAVQDRLNEQ [FAF2]: the protein stability index is, setting by setting: under setting [1], 3.89 ± 0.17; under setting [2], 3.87 ± 0.18.

Turning to QDHFHVFVGDLSPEITTEDIKAAF [TIA1], the protein stability index is, setting by setting: under setting [1], 2.73 ± 0.54; under setting [2], 3 ± 0.33.

Consider QDLLKERQKDLKFLSEEEYWKLQI [CCNC], for which the protein stability index is, setting by setting: under setting [1], 3.45 ± 0.13; under setting [2], 3.67 ± 0.15.

QELDIKKNERLWLLDDSKTWWRVR [NCK2]: the protein stability index is 2.37 ± 0.14 under setting [1] and 2.61 ± 0.28 under setting [2].

Turning to QEPMVPAKLGTQAEKDRRLKKKHQ [PPFIA4], the protein stability index runs as follows: under setting [1], 5.32 ± 0.42; under setting [2], 5.56 ± 0.11.

For QEQNGRLQAELAAQEALREKAAAL [LRRC45], the protein stability index came to 5.25 ± 0.21 under setting [1] and 5.31 ± 0.28 under setting [2].

With QETLTNISAVNYDFDEEYFSNTSE [DAPK3], the protein stability index is 5.41 ± 0.26 under setting [1] and 5.41 ± 0.21 under setting [2].

On to QFCAQRFGRKDHLTRHTKKTHSQE [PLAGL1], for which the protein stability index reads like this: under setting [1], 4.07 ± 0.43; under setting [2], 4.18 ± 0.27.

As for QFLFIYQLPFCGPNVIDNFLCDLY [OR4A15], the protein stability index under setting [1] is 3.04 ± 0.11 and the protein stability index under setting [2] was determined as 2.86 ± 0.38.

Consider QFPYVEFTGRDSITCLTCQGTGYI [TMEM106C], for which the protein stability index under setting [1] worked out at 2.93 ± 0.47 and the protein stability index under setting [2] was 3.09 ± 0.52.

In the case of QGDPAFPEMNGNGAVAPMDFTTAA [NOL4L], the protein stability index is, setting by setting: under setting [1], 5.09 ± 0.2; under setting [2], 4.98 ± 0.16.

QGKYECVATNSAGTRYSAPANLYV [PTPRD]: the protein stability index by setting is: under setting [1], 2.9 ± 0.22; under setting [2], 2.89 ± 0.64.

Regarding QGMEGIKVFLHERELWLKFHEVGT [TBX5], the protein stability index is 2.2 ± 0.14 under setting [1] and 2.17 ± 0.23 under setting [2].

As to QGQAAAPASGSGADSEPARHIFSF [TRIM55], the protein stability index runs as follows: under setting [1], 3.76 ± 0.27; under setting [2], 3.79 ± 0.3.

Turning to QHEEICLGLFTLILTEPAQAQKCY [INTS3], the protein stability index runs as follows: under setting [1], 2.24 ± 0.46; under setting [2], 2.32 ± 0.41.

Consider QKVDQFDPFTVPTISFICRELDAI [PRIM1], for which the protein stability index came out at 2.2 ± 0.24 under setting [1] and 2.31 ± 0.33 under setting [2].

As to QLEKPPEKEEDHAPEFIKVRENLR [FAM107A], the protein stability index reads like this: under setting [1], 5.29 ± 0.23; under setting [2], 5.32 ± 0.16.

As to QLENEQSQENSINPIQKEEDEGVD [SPANXN3], the protein stability index reads like this: under setting [1], 5.56 ± 0.22; under setting [2], 5.67 ± 0.2.

Take QLHAKIDAAEEEKYDMEVRVQKTS [TNNI2]: the protein stability index under setting [1] stood at 5.27 ± 0.23 and the protein stability index under setting [2] came out at 5.22 ± 0.24.

QLHPPRWYSRLQACQWGGNFLAFS returned a protein stability index under setting [1] of 2.11 ± 0.45 and a protein stability index under setting [2] of 2.26 ± 0.088.

On to QLRCEMEQQNQEYKILLDVKTRLE [KRT17], for which the protein stability index runs as follows: under setting [1], 3.63 ± 0.28; under setting [2], 3.83 ± 0.098.

On to QPRLSYAEMAEDYPRYPDIHDLDL [CLCN6], for which the protein stability index stood at 4.14 ± 0.27 under setting [1] and 4.24 ± 0.14 under setting [2].

On to QQFVIAGVLVEDSNNHHLMLEASE [ZBED1], for which the protein stability index was 3.5 ± 0.36 under setting [1] and 3.57 ± 0.43 under setting [2].

On to QQKQQIMAALNSQTAVQFQQYAAQ [ACBD3], for which the protein stability index came to 3.21 ± 0.17 under setting [1] and 3.27 ± 0.16 under setting [2].

As to QQLVSFSESGSLGNSSGSDVTSLS [ISL2], the protein stability index turned out to be 4.79 ± 0.19 under setting [1] and 4.72 ± 0.37 under setting [2].

Turning to QQSQGWVHYMIHEPEPHILLFRRP [CKS1B], the protein stability index turned out to be 2.11 ± 0.35 under setting [1] and 1.96 ± 0.22 under setting [2].

Consider QQTKLEAEKLKVQALKDRGLSIPR [LSM1], for which the protein stability index turned out to be 4.12 ± 0.16 under setting [1] and 4.21 ± 0.075 under setting [2].

Sequence QRDSKRWSRLEEFDVFSPKQDLVP [DLC1] yielded a protein stability index under setting [1] of 3.63 ± 0.13 and a protein stability index under setting [2] of 3.8 ± 0.21.

As to QRISCFQSTVKCLTVLQRLDVWLS [WDR41], the protein stability index reads like this: under setting [1], 2.45 ± 0.35; under setting [2], 2.41 ± 0.44.

Regarding QRSVSDVASGSTPAPALCCAPYDS [IRX6], the protein stability index runs as follows: under setting [1], 4.8 ± 0.34; under setting [2], 4.94 ± 0.085.

Consider QSKPLLSAFADIIHSLKESGQLWL [FADS1], for which the protein stability index was found to be 2.8 ± 0.4 under setting [1] and 2.87 ± 0.68 under setting [2].

Consider QTFLDERTPRLMPDKESMYYPRVQ [GDAP1], for which the protein stability index runs as follows: under setting [1], 3.43 ± 0.32; under setting [2], 3.41 ± 0.31.

For QTLRQELSLPYLPSGTPELEVPKP [CHIT1], the protein stability index worked out at 4.7 ± 0.15 under setting [1] and 4.69 ± 0.36 under setting [2].

As to QVERMREVNSRCYQPEPFACGIEH [FBXO34], the protein stability index amounted to 2.53 ± 0.3 under setting [1] and 2.43 ± 0.34 under setting [2].

Consider QVPYPPRQLLRDFQSRLPYQYLHY [P3H4], for which the protein stability index by setting is: under setting [1], 2.45 ± 0.072; under setting [2], 2.24 ± 0.35.

Turning to QYESIAAKNLQEAEEWYKSKYADL [PRPH], the protein stability index turned out to be 4.76 ± 0.23 under setting [1] and 4.49 ± 0.21 under setting [2].

Sequence QYYRTIEELQNKILTATVDNANIL [KRT17] had a protein stability index under setting [1] of 2.22 ± 0.2 and a protein stability index under setting [2] of 2.23 ± 0.2.

RADKNDDGKLSFEEFKAYFADGVL [NECAB1] had a protein stability index under setting [1] of 3.48 ± 0.3 and a protein stability index under setting [2] of 3.58 ± 0.39.

For the sequence RAINLLFDIARIERCNQLLRALKL [ZER1], the protein stability index by setting is: under setting [1], 1.82 ± 0.16; under setting [2], 2.08 ± 0.32.

The sequence RAKGLLGTTVTFDDLMGILCKSVL [FEM1C] showed a protein stability index under setting [1] of 2.76 ± 0.63 and a protein stability index under setting [2] of 2.54 ± 0.22.

As to RALARNLIFGLITCLTGVLGVGLG [SPNS1], the protein stability index reads like this: under setting [1], 2.28 ± 0.32; under setting [2], 2.92 ± 0.81.

The sequence RALESELQQLRARLQGLEADCVRG [PBXIP1] yielded a protein stability index under setting [1] of 3.47 ± 0.19 and a protein stability index under setting [2] of 3.31 ± 0.13.

As for RASQREYEELRNSERAEVQRLEEQ [RSPH3], the protein stability index is, setting by setting: under setting [1], 5.43 ± 0.27; under setting [2], 5.3 ± 0.2.

In the case of RCNTTCGRGVKKRLVLCMELANGK [ADAMTSL2], the protein stability index reads like this: under setting [1], 3.22 ± 0.21; under setting [2], 3 ± 0.13.

For RDASDPLAGAALEPAGGGRSREAR [SMAD6], the protein stability index under setting [1] is 5.39 ± 0.19 and the protein stability index under setting [2] came to 5.44 ± 0.2.

For RDLKTQNILLDKHRMVVKIGDFGI [NEK8], the protein stability index turned out to be 2.24 ± 0.18 under setting [1] and 2.24 ± 0.16 under setting [2].

As for REESQHEIKDVLVWTNDQVVHWVQ [PPFIA4], the protein stability index is, setting by setting: under setting [1], 3.4 ± 0.37; under setting [2], 3.97 ± 0.45.

Consider RERKKNWGGQEDREPAGRWKEGRP [PBXIP1], for which the protein stability index runs as follows: under setting [1], 4.49 ± 0.24; under setting [2], 4.73 ± 0.13.

As to RGEVLPEEITEESLEESVGKPLYL [INTS3], the protein stability index amounted to 5.17 ± 0.38 under setting [1] and 5.08 ± 0.35 under setting [2].

Regarding RGLEPGKGRHHRGRGGEPRAYFMS [CHGB], the protein stability index by setting is: under setting [1], 4.36 ± 0.092; under setting [2], 4.24 ± 0.13.

In the case of RGPPPRSGGPPPKRSAPSGPVRSS [RBMX], the protein stability index is 4.4 ± 0.2 under setting [1] and 4.56 ± 0.086 under setting [2].

As for RGSRGAPPPLGPVVPVLVFPPDLV [MOSPD3], the protein stability index by setting is: under setting [1], 2.67 ± 0.05; under setting [2], 2.96 ± 0.22.

On to RKFSRECEDQKQIKKPESFSKQIV [NEUROD6], for which the protein stability index runs as follows: under setting [1], 4.43 ± 0.27; under setting [2], 4.21 ± 0.43.

In the case of RKLRKTVNGDGSRENGNNSSDKVR [PHTF1], the protein stability index is 4.96 ± 0.088 under setting [1] and 4.99 ± 0.18 under setting [2].

Consider RLFQQSCPTGLVFSNSCKCCTWN [CHIT1], for which the protein stability index is, setting by setting: (treatment: DMSO, c terminus: native) 2.37 ± 0.44; (treatment: MLN4924 1 uM, 8 h, c terminus: native) 2.37 ± 0.28.

For the sequence RLHLAFKRQVPREQAQAYAERLGV [RAB40A], the protein stability index under setting [1] stood at 2.76 ± 0.16 and the protein stability index under setting [2] is 3.12 ± 0.18.

On to RLHLRRTTEQHVPEVEVQVKRRRT [SNURF], for which the protein stability index turned out to be 4.75 ± 0.26 under setting [1] and 4.71 ± 0.35 under setting [2].

On to RLQSSFWIVDKQHVYIGSAGLDWQ [PLD5], for which the protein stability index came out at 2.69 ± 0.46 under setting [1] and 2.26 ± 0.38 under setting [2].

In the case of RLRHYLGSRYDARRGVSDWDLRMK [DNAAF3], the protein stability index was determined as 2.19 ± 0.21 under setting [1] and 2.33 ± 0.33 under setting [2].

Regarding RNLDGTLGYLLDKETLRLHPDIFL [ZER1], the protein stability index is, setting by setting: under setting [1], 2.13 ± 0.27; under setting [2], 2.05 ± 0.17.

On to RPQPWLEKEIEEATKKLGFKHPVI [FUT8], for which the protein stability index runs as follows: under setting [1], 3.643 ± 0.035; under setting [2], 3.22 ± 0.37.

RQFEFYLEEMILPLMVASAQSGER [BTBD10]: the protein stability index came out at 2.58 ± 0.64 under setting [1] and 3.2 ± 0.43 under setting [2].

For RQQGNPGHRSIYLALKLPDGSYAL [ADAMTS4], the protein stability index is, setting by setting: under setting [1], 2.04 ± 0.23; under setting [2], 2.2 ± 0.33.

In the case of RQQVTNHGRGTEVLLEEPLPLETA [ZNF263], the protein stability index is, setting by setting: under setting [1], 5 ± 0.28; under setting [2], 5.04 ± 0.17.
